Publication PMC11992174, “Structural Insights into Bortezomib-Induced Activation of the Caseinolytic Chaperone-Protease System in Mycobacterium tuberculosis” (Nature Communications, 2025)

Biological target: the molecule itself
Assay: cryo-EM structure

B1: MtbClpX^E187Q (enzyme)
chain: not shown
notes: also called Walker B motif mutant MtbClpX
  stoichiometry N: 6
